Results on one protein are retold here after ChEMBL document CHEMBL2074302, “ATP-dependent transport for glucuronides in canalicular plasma membrane vesicles” (Biochem Biophys Res Commun, 1991).

The Km is the concentration of substrate that gives half-maximal velocity.

Substrate in this data set: O=C(O)[C@H]1O[C@@H](Oc2ccc([N+](=O)[O-])cc2)[C@H](O)[C@@H](O)[C@@H]1O
The data set is described as follows: TP_TRANSPORTER: uptake in bile canalicular membrane vesicles from Wistar rat. The class given is functional, cell membranes, Bile canalicular membrane vesicle.

B1: ATP-binding cassette sub-family C member 2 (Rattus norvegicus) (protein)
chain: MDKFCNSTFWDLSLLESPEADLPLCFEQTVLVWIPLGFLWLLAPWQLYSVYRSRTKRSSITKFYLAKQVFVVFLLILAAIDLSLALTEDTGQATVPPVRYTNPILYLCTWLLVLAVQHSRQWCVRKNSWFLSLFWILSVLCGVFQFQTLIRALLKDSKSNMAYSYLFFVSYGFQIVLLILTAFSGPSDSTQTPSVTASFLSSITFSWYDRTVLKGYKHPLTLEDVWDIDEGFKTRSVTSKFEAAMTKDLQKARQAFQRRLQKSQRKPEATLHGLNKKQSQSQDVLVLEEAKKKSEKTTKDYPKSWLIKSLFKTFHVVILKSFILKLIHDLLVFLNPQLLKLLIGFVKSSNSYVWFGYICAILMFAVTLIQSFCLQSYFQHCFVLGMCVRTTVMSSIYKKALTLSNLARKQYTIGETVNLMSVDSQKLMDATNYMQLVWSSVIQITLSIFFLWRELGPSILAGVGVMVLLIPVNGVLATKIRNIQVQNMKNKDKRLKIMNEILSGIKILKYFAWEPSFQEQVQGIRKKELKNLLRFGQLQSLLIFILQITPILVSVVTFSVYVLVDSANVLNAEKAFTSITLFNILRFPLSMLPMVTSSILQASVSVDRLERYLGGDDLDTSAIRRVSNFDKAVKFSEASFTWDPDLEATIQDVNLDIKPGQLVAVVGTVGSGKSSLVSAMLGEMENVHGHITIQGSTAYVPQQSWIQNGTIKDNILFGSEYNEKKYQQVLKACALLPDLEILPGGDMAEIGEKGINLSGGQKQRVSLARAAYQDADIYILDDPLSAVDAHVGKHIFNKVVGPNGLLAGKTRIFVTHGIHFLPQVDEIVVLGKGTILEKGSYRDLLDKKGVFARNWKTFMKHSGPEGEATVNNDSEAEDDDDGLIPTMEEIPEDAASLAMRRENSLRRTLSRSSRSSSRRGKSLKNSLKIKNVNVLKEKEKEVEGQKLIKKEFVETGKVKFSIYLKYLQAVGWWSILFIILFYGLNNVAFIGSNLWLSAWTSDSDNLNGTNNSSSHRDMRIGVFGALGLAQGICLLISTLWSIYACRNASKALHGQLLTNILRAPMRFFDTTPTGRIVNRFSGDISTVDDLLPQTLRSWMMCFFGIAGTLVMICMATPVFAIIIIPLSILYISVQVFYVATSRQLRRLDSVTKSPIYSHFSETVTGLPIIRAFEHQQRFLAWNEKQIDINQKCVFSWITSNRWLAIRLELVGNLVVFCSALLLVIYRKTLTGDVVGFVLSNALNITQTLNWLVRMTSEAETNIVAVERISEYINVENEAPWVTDKRPPADWPRHGEIQFNNYQVRYRPELDLVLKGITCNIKSGEKVGVVGRTGAGKSSLTNCLFRILESAGGQIIIDGIDVASIGLHDLRERLTIIPQDPILFSGSLRMNLDPFNKYSDEEVWRALELAHLRSFVSGLQLGLLSEVTEGGDNLSIGQRQLLCLGRAVLRKSKILVLDEATAAVDLETDSLIQTTIRKEFSQCTVITIAHRLHTIMDSDKIMVLDNGKIVEYGSPEELLSNRGSFYLMAKEAGIENVNHTEL
Take B1: the Km is 20 µM.
